From patent US20080085863A1 (WISCONSIN ALUMNI RESEARCH FOUNDATION, published 2008)

Columns and labels:
[1] = target: T1, methylamine-treated human α2-macroglobulin
T1 chain: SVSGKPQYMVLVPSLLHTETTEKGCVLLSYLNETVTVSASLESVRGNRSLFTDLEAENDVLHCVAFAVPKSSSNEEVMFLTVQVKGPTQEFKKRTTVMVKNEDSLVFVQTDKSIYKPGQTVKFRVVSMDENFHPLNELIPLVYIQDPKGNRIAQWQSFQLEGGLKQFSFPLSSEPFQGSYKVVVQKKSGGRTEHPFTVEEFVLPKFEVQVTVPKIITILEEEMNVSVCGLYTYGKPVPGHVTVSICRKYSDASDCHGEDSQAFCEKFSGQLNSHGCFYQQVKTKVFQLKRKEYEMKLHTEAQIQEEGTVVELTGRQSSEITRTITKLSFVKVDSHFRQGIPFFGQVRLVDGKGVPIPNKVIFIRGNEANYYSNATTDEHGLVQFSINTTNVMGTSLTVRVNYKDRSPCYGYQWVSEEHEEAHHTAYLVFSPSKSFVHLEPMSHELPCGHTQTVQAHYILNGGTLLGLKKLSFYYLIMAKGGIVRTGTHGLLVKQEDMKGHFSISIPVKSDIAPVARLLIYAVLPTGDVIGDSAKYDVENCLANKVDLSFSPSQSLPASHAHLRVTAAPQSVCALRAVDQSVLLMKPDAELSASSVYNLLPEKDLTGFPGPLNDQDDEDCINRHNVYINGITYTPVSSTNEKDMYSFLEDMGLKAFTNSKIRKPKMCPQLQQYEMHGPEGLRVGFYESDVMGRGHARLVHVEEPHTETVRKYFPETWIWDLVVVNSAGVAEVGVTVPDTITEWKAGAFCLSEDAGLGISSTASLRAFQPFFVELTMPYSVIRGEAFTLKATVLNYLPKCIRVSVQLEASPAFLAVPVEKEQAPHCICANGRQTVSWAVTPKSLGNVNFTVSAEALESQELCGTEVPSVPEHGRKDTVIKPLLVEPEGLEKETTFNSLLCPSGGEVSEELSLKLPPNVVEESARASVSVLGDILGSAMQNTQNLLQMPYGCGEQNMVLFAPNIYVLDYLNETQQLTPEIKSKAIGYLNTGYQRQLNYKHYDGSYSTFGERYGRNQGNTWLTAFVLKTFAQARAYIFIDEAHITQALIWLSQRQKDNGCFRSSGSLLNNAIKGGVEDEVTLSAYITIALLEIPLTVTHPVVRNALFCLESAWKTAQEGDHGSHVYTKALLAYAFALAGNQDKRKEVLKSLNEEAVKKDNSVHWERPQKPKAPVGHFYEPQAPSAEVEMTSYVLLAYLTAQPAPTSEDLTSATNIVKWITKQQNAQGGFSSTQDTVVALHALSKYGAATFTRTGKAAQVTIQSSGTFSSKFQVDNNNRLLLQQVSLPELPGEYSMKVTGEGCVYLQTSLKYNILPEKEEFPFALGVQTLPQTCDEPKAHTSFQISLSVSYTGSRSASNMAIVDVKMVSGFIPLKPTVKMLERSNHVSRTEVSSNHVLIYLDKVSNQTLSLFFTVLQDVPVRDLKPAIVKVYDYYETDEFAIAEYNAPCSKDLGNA

[2] = target: T2, recombinant mutant α2-macroglobulin with the native bait region replaced by sequences flanking the human probiglycan BMP-1 cleavage site (b-α2M)
T2 chain: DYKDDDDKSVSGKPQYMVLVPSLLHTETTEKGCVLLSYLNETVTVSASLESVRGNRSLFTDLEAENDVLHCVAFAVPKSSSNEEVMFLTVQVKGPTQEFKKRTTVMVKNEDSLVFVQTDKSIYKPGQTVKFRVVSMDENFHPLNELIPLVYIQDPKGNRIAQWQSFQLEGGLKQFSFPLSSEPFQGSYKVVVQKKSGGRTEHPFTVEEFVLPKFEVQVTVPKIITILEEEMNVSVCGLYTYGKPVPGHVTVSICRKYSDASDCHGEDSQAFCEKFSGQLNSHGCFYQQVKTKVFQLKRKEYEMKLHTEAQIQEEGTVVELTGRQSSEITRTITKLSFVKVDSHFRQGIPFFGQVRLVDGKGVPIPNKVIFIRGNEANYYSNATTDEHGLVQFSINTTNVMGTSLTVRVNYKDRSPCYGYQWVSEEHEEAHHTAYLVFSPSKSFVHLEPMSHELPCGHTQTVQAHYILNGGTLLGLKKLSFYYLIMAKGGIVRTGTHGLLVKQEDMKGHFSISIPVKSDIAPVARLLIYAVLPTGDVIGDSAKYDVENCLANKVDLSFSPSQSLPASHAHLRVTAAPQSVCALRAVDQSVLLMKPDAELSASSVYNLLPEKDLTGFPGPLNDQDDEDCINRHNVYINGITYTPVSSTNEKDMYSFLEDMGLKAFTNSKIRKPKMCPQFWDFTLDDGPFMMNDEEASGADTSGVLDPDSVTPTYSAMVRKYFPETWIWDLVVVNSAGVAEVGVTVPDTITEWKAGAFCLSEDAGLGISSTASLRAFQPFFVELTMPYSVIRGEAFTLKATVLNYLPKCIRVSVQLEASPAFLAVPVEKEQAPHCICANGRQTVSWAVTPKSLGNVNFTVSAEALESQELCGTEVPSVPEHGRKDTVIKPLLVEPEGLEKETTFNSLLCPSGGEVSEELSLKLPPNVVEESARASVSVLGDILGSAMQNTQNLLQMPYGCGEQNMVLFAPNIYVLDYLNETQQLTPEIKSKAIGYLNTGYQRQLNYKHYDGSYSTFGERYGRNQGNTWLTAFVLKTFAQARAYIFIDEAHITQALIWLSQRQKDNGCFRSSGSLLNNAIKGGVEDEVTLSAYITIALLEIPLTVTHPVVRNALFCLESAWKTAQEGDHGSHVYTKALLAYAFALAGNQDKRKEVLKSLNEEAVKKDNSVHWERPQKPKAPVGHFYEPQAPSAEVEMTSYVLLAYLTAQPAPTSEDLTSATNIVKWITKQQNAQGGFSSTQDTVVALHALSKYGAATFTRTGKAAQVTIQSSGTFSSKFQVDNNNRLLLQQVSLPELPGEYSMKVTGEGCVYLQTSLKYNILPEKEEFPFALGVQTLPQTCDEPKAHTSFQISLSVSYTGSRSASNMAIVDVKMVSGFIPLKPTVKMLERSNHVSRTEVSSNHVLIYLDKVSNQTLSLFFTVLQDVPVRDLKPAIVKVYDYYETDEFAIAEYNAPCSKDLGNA

[3] = target: T3, human α2-macroglobulin from plasma (Sigma-Aldrich); assay: 2 hour co-incubation of 40 nM 35S-BMP-1 with 40 nM α2M, SDS-PAGE autofluorogram
T3 chain: T1 chain

[4] = target: T2, recombinant mutant α2-macroglobulin …; assay: as above
[5] = target: T4, recombinant wild type α2-macroglobulin (FLAG-tagged); assay: as above
T4 chain: T1 chain

B1: Flag-tagged recombinant bone morphogenetic protein-1 (BMP-1) (protein)
chain: AATSRPERVWPDGVIPFVIGGNFTGSQRAVFRQAMRHWEKHTCVTFLERTDEDSYIVFTYRPCGCCSYVGRRGGGPQAISIGKNCDKFGIVVHELGHVVGFWHEHTRPDRDRHVSIVRENIQPGQEYNFLKMEPQEVESLGETYDFDSIMHYARNTFSRGIFLDTIVPKYEVNGVKPPIGQRTRLSKGDIAQARKLYKCPACGETLQDSTGNFSSPEYPNGYSAHMHCVWRISVTPGEKIILNFTSLDLYRSRLCWYDYVEVRDGFWRKAPLRGRFCGSKLPEPIVSTDSRLWVEFRSSSNWVGKGFFAVYEAICGGDVKKDYGHIQSPNYPDDYRPSKVCIWRIQVSEGFHVGLTFQSFEIERHDSCAYDYLEVRDGHSESSTLIGRYCGYEKPDDIKSTSSRLWLKFVSDGSINKAGFAVNFFKEVDECSRPNRGGCEQRCLNTLGSYKCSCDPGYELAPDKRRCEAACGGFLTKLNGSITSPGWPKEYPPNKNCIWQLVAPTQYRISLQFDFFETEGNDVCKYDFVEVRSGLTADSKLHGKFCGSEKPEVITSQYNNMRVEFKSDNTVSKKGFKAHFFSEKRPALQPPRGRPHQLKFRVQKRNRTPQ
[1]
  cleavage of α2M by BMP-1 (SDS-PAGE): BMP-1 was unable to cleave methylamine-treated α2M
[2]
  cleavage of α2M by BMP-1 (Western blot, time course): b-α2M is cleaved by BMP-1 more readily than recombinant wild-type α2M (rα2M)
[3]
  percent of BMP-1 incorporated into complexes: 28% of sample
[4]
  percent of BMP-1 incorporated into complexes: 42% of sample
[5]
  percent of BMP-1 incorporated into complexes: 12% of sample
